Reference: PMC7647061, “Expression, purification and characterization of α-synuclein fibrillar specific scFv from inclusion bodies” (PLoS ONE, 2020)

Biological target: full-length α-syn140 fibrils (Homo sapiens (assumed), UniProt P37840)
Test: far-Western, overlay or dot blot; dot blot: antigen (monomeric or fibrillar) spotted on nitrocellulose in 5 μl, air-dried, blocked in 5% skimmed milk in PBST; scFv-F 5 μg/mL overnight at 4°C; detected by anti-His and HRP secondary antibody
Details: both partners purified

binding result: binds
B1: single-chain variable fragment (scFv-F) antibody (scFv, V domains shown)
VH: DVQLVESGGGLVQPGGSRKLSCAASGFTFSSFGMHWVRQAPEKGLEWVAYISSGSSTIYYADTVKGRFTISRDNPKNTLFLQMTSLRSEDTAMYYCARGNNPGTGYYYAMDYWGQGTSVTVSS
VL: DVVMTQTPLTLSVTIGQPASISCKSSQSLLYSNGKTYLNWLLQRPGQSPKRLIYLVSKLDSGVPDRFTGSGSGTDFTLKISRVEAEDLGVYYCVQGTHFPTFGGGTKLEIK
notes: VL of mouse monoclonal antibody Syn-F2; (Gly4Ser)3 linker, written out from the printed formula; VH of mouse monoclonal antibody Syn-F2; Order VL-(Gly4Ser)3-VH-6xHis; Final construct is in pET28a; the vector may add residues at the N-terminus (the model's residue numbers Tyr215 and Thr269 hint at a chain longer than VL-linker-VH alone); not shown: His6, C-terminal, kept
